Assay: yeast display, Sf9 membrane polyspecificity reagent, FACS + sequencing; frameworks hold sequencing errors
Method in brief: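 Genes from sorted yeast were amplified by colony PCR, read by MiSeq 2 × 250 sequencing and filtered on CDR length. These cells carried a synthetic nanobody library in Saccharomyces cerevisiae BJ5465 and were sorted by FACS into low and high (top ~1%) gates on anti-HA and streptavidin fluorescence. Polyreactivity is labelled according to the gate of origin.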

Sequence | polyreactivity (PSR sort gate)
QVHLVESGGGLVQAGGSLRLSCAASGRIFVRYAMGWYRQAPGKERELVATISGGRTNYADSVKWRFTISRDNAKNSVYLQMNSLKPEDTAVYYCAVGSHSRSSNSYYYWGQGSQVTVSS | low polyreactivity
QVHLVESGGGLVQAGGSLRLSCAASGRISKLYAMGWYRQAHGKERDLVAAISSGGSTYYADSVKGRFTISRDNAKNTVYLQMNSLKPEDTAVYYCAVTQVMQYGIPYSYTRDYWGQGTQVTVSS | low polyreactivity
QVHLVESGGGLVQAGGSLRLSCAASGRISWGYAMGWDRQAPGKERELVAVINFNGGRTYYADSVKGRFTISRDNAKNTVYLQMNSLKPEDTAVYYCAADSGYEYDYWGQGTQVTVSS | low polyreactivity
QVHLVESGGGLVQAGGSLRLSCAASGRIYPYPMGWYRQAPGKERELVAAITSRGGTTYYADSVKGRFTISRDNAKNTDYVQMNSLKPEDTAVYYCNKRPWWWGGDDYWGQGTQVTVSS | low polyreactivity
QVHLVESGGGLVQAGGSLRLSCAASGRNFYTNVMGWSRQAPGKERELVAAISSGGGTTYYADSVKGRFTISRDNAKNTVYLQMNSLKPEDTAVYYCAADALSDEYDYWGQGTEVTVSS | low polyreactivity
QVHLVESGGGLVQAGGSLRLSCAASGRSFRRNARGWYRQAPGKERELVATISSGGTTKYADSVKGRFTISRDNAKYTVYLQMNNLKPEDTAVYYCNADLNRRTYGPDSYYWGQGNQVTVSS | high polyreactivity
QVHLVESGGGLVQAGGSLRLSCAASGRTFASNPMGWYRQAPGKERELVAAISARGGSTYYADSVKGRFTISRDNAKNTVYLQMNSLKPEDTAVYYCAAYLGYPYGRDYWGQGTQVTVSS | high polyreactivity
QVHLVESGGGLVQAGGSLRLSCAASGRTFFWYVMGWYRQAPGKERELVATISYGGITYYADSVKGRFTISRDNAKNTVYLQMNSLKPEDTAVYYCAARRSLYYSTVKFDGYYYWGQGTQVTVSS | high polyreactivity
QVHLVESGGGLVQAGGSLRLSCAASGRTFGWNVMGWYRQAPGTERELVAAISGSGGSTYYADSVKGRFTISRDNAKNTVYLQMNSLKPEDTAVYYCAALYGPGREYDYWGQGTQVTVSS | low polyreactivity
QVHLVESGGGLVQAGGSLRLSCAASGRTFIYYAMGWYRQAPGKERELVASITTGGRTYYADSVKGRFTISRDNAKNTVYLQMNSLKPEDSAVYYCAAEPHFFWYYHYVYGEHDYWGQGTQVTVSS | high polyreactivity
QVHLVESGGGLVQAGGSLRLSCAASGRTFKYYAMGWYRQAPGKERELVAAISSRGGSTYYADSVKGRFTISRDNAKNTVYLQMNSLKPEDTAVYYCAKGTYLSTSTVANDYWGQGTQGTVSS | high polyreactivity
QVHLVESGGGLVQAGGSLRLSCAASGRTFPYNAMGGYRQAPGKERELVAAISSGGSTTYADSVKGRFTISRDNAKNTVYLQMNSQKPEDTAVYYCATKYQRRPYRYYYWGQGTQVTVSS | low polyreactivity
QVHLVESGGGLVQAGGSLRLSCAASGRTFSGYAMGWYRQAPGKERELVAAITSSGSSTYYADSVKGRFTISRDNAKNTVYLQMNSLKPEDTAVYYCAATPQAHSERYYYQRKYDYWGQGTQVTVSS | low polyreactivity
QVHLVESGGGLVQAGGSLRLSCAASGRTFSRYAMGWYRQAPGKERELVATITRGGSTNYADSVKGRFTISRDNAKNTVYLQMNSLKPEDTAVYYCNAASFRYQGTLNHFYYWGQGTQVTVSS | low polyreactivity
QVHLVESGGGLVQAGGSLRLSCAASGRTFSRYPMGWYRQAPGKERELVAAIRGNSGNTYYAYSVKGRFTISRDNAKNTVYLQMNSLKPEDTAVYYCAKPFNIWGQGTQVTVSS | high polyreactivity
QVHLVESGGGLVQAGGSLRLSCAASGRTFSTYAMGWYRQAPGTERELVAAISSGGGRTYYADSVKGRFTISRDNAKNTVYLQMNRLKPEDTAVYYCAADRYFRSSRSYEYWGQGTLVTVSS | low polyreactivity
QVHLVESGGGLVQAGGSLRLSCAASGRTFWLNAMGWYRQAPGKERELVATISSSSGSTTYADSVKGRFTISRDNAKNTVYLQINSLKPEDTAVYYCAVYSHKKVRPEYDYWGQGTQVTVSS | low polyreactivity
QVHLVESGGGLVQAGGSLRLSCAASGRTFYSYVMGWYRQAPGKERELVAAISSTGGTYADSVKGRFTISRDNAKNTVYLQINSLKPEETAVYYCAAATPTGYKRGGYWGQGTQVTVSS | low polyreactivity
QVHLVESGGGLVQAGGSLRLSCAASGRTIAAYAMGWYRQAPGKERELVAAISRSGGSTYYADSVKGRFTISRDNAKNTVYLQMNSLKPEDTAVYYCAAQRQYGKFDYWGQGTQVTVSS | high polyreactivity
QVHLVESGGGLVQAGGSLRLSCAASGRTIRLNVMGWYRQAPGKERELVAAITRSVGSTYYADSVKGRFTISRDYAKNTVYLQMNSLKPEDTAVYYCNAVRSRYYDDYDYWGQGTQVTVSS | high polyreactivity
QVHLVESGGGLVQAGGSLRLSCAASGRTLVPNAMGWYRQAPGKERELVAAISRSGGSTYYADSLKGRFTISRDNAKNTVYLQMNSLKPEDTAVYYCAKDKRIFYRVGSDYWGQGTQVTVSS | low polyreactivity
QVHLVESGGGLVQAGGSLRLSCAASGRTLYYYTMGWYRQAPGKERDLVAAIRWSTGSTYYADSVKGRFTISRDNAKNTVYLQMNSLKPEDTAVYYCNASRYQWAQSTEYDYWGQGTQVTVSS | high polyreactivity

Sequence | polyreactivity (PSR sort gate)
QVHLVESGGGLVQAGGSLRLSCAASGSICGHYAMGWYRQAPGKERELVANITLSDGRTYYADSVKGRFTISLDNAKNTVYFQMNSLKPEDTAVYYCAARYYSFSSPFDYWGQGNQVTVSS | high polyreactivity
QVHLVESGGGLVQAGGSLRLSCAASGSIFFTYAMGWYRQAPGKETEWVAAISSGGSPYYADSVKGRFTISRDNANNTVYLQMNSLKPEDTEVYYCAARGYRLVPVDFSYWGQGTQVTVSS | low polyreactivity
QVHLVESGGGLVQAGGSLRLSCAASGSIFGGYGMGWYRQAPGKEREMVAAITSGSSTYYADSVKGPFTISRDNAKNSVYFQLNSLKPEDTAVYYCAARPYPHSAYEGDYWGRGTQVTVSS | low polyreactivity
QVHLVESGGGLVQAGGSLRLSCAASGSIFGYNAMGWYRQAPGKERELVAAISLTTGSTYYADSVKGRFTISRDNAKNTVYLQMNSLKPEDTAVYYCAIRGFYRGYGQAYGYWGQGTLVTVSS | high polyreactivity
QVHLVESGGGLVQAGGSLRLSCAASGSIFHGYSMGWYRQAPGKERELVAAINSGDGSTYADSVKGRFTISRDNAKNTVYLQMNSLKPEDTAVYYCATDGTYYEHDYWGQATQVTVSS | low polyreactivity
QVHLVESGGGLVQAGGSLRLSCAASGSIFPFNAMGWYRQAPGKERELVAAIRWSDGRTYYADSVKGRFTISRDNAKNTVYLQMNSLKPEDTAVYYCAAKSYWGQGTQVTVSS | high polyreactivity
QVHLVESGGGLVQAGGSLRLSCAASGSIFQPYAMGWYRQAPGTERELVAAISSSGGSTTYADSVKGRFTISRDKAKNTVYLQMNSLKPEDTAVYYCAAESADDMGYWGQGTQVTVSS | low polyreactivity
QVHLVESGGGLVQAGGSLRLSCAASGSIFRLYSMGWYRQAPGKERELVARITTGGSTNYADSVKGRFTISRDNAKNTVYLQMNSLKPEDTAVYYCNAGVWVTAQLGLQKYSYWGQGTQVTVSS | high polyreactivity
QVHLVESGGGLVQAGGSLRLSCAASGSIFSRNAMGWYRQAPGKERELVAAISRGANTYYADSVKGRFTISRDNAKNTVYLQMNSLKPEDTAVYYCNAGSRSRYEGGYWGQGTQVTVSS | high polyreactivity
QVHLVESGGGLVQAGGSLRLSCAASGSIFTQYAMGWYRQAPGKERELVARITGSGGRTYYADSVKGRFTISRDNAKNTVYLQMNSLKPEDTAVYYCNARLYTYGRHQGPDYNYWGQGTQVTVSS | high polyreactivity
QVHLVESGGGLVQAGGSLRLSCAASGSIFTRYVMGWYRQAPGKERELVAAISGRGSSTYYADSVKGRFKISRDYAKNTVYLQMNSLKPEDTAVYYCAAEIVVFYSEGQRNTFYYWGQGTQVTVSS | high polyreactivity
QVHLVESGGGLVQAGGSLRLSCAASGSIFVPYAMGWYRQAPRKERELVAAINHGGGRTYADSVKGRFTISRDNAKNSVYLQMNSLKPDDTAVYYCAADGADKIGYYSYYYWGQGTQVTVSS | low polyreactivity
QVHLVESGGGLVQAGGSLRLSCAASGSIFYYNAMGWYRQAPGKERELVAAITSGDSTNYADSVKGRFTISRDNAKNTVYLQMNSLKPEDTAVYYCNTDGLVRNGPFYSWGQGTQVTVSS | low polyreactivity
QVHLVESGGGLVQAGGSLRLSCAASGSIFYYNTMGWYRQAPGKERELVAAIRFDDGSTYYADSVKGRFTISRDNAKNTVYLQMNSLKPEDTAVYYCAADWIVVSEFGLDYHMDYWGQGTQVTVSS | low polyreactivity
QVHLVESGGGLVQAGGSLRLSCAASGSIIKRNAMGWYRQAPGKERELVATISSGDGSTRYADSVKGRFTISRDNAKNTVYLQMNSLKPEDSAVYYCAAASAAGYDYWGQGTQVTVSS | low polyreactivity
QVHLVESGGGLVQAGGSLRLSCAASGSILAGYAMGWYRQAPGKEWELVAAISSGGRTYYADSVKGRFTISRDNAKNTVYLQMNSLKPEDTAVYYSAAGKYDGSRRMYYWGQGTQVTVSS | high polyreactivity
QVHLVESGGGLVQAGGSLRLSCAASGSISVANAMGWYRQAPGKERELVAAITDSGDDTYYADSVKGRFTISRDNAKNTVYLQMNSLKPEDTAVYYCAVEAWSVPPYDYWGQGTQVTVSS | low polyreactivity
QVHLVESGGGLVQAGGSLRLSCAASGSIYVNTMGWYRQAPGKDRELVAGISRSTGRTYYADSVKGRFTISRDNAKNTVYLQMNSLKPEDTAVYYCNTVPWRRWGYDYWGQGTQVTVSS | high polyreactivity
QVHLVESGGGLVQAGGSLRLSCAASGSTFDTYALGWYRQAPGKEWELVAAINTGGRTKYADSVKGRFTISRDNAKNTVYLQMNSLKPVDTGVYYCAARLSTTGVAYGYWGLGTQVTVSS | high polyreactivity
QVHLVESGGGLVQAGGSLRLSCAASGSTFEQYAMGWYIQAPGKERELVAAISGSGTRTYYADSVKGRFTISRDNAKNTVYLQMNSLKPEDTAVYSCRTGSGEYDYWGQGTQVTVSS | high polyreactivity
QVHLVESGGGLVQAGGSLRLSCAASGSTFGTYAMGWYRQAPGKERELVAAISNSGGSTYYADSVKGRFTISRDYAKNTVYLQMNSLKPEDTAVYYCNTDGLVRNGPFYSWGQGTQVTVSS | low polyreactivity

— the nanobody polyreactivity screen of Harvey et al. (2022)
